Protein production data for nine sequences are collected here from a protein production outcome set (Wang et al. 2014).

The nature of the series: label from the status in PepcDB records.

Turning to “MKTKAKISSRWLRFRALLIDIFLIYIPILYLFYFLLGSKEAFLNNHFITTLCTFLFGLIQAIFLTKKAQSPGLKAYDLYLIDIKTGKKLSFLRILLRYVIFIISFGLLFGLFVSFVRKDRLNLHDILTQSCIATKSIKKG”, the protein production entry is given as “failed”. As to “MKTKTLNTNRFIKLSLLSAIAVILMYIDFPVIPIFPWLKIDLSDVPALMGAFAFGPLAGVIIELMKNLLILIVKGTGTGFVGELANFLVGVALVWPAALVYKKNKTKKTAILGMVLGVLCIEVVGILANVYLLLPAYGMAMSKAELMQYVTVGLIPFNGIKSILVCGITYALYKKVSVSIFKVEPMLDKPKQMKENLG”, the protein production result was “failed”. Consider “MKTLLIAWHSRTGAARQMAQALERGALAAALALEQPGQLRVRRQAASRTDAAALLAADGYLFCAPENLGSLSGAMKECFDRCYYGVLDRIQGRPYGVAISAGTDGEGAARQVERICTGWRLRAAAPPLIARSGAQTPEQIAAPKQVPADVLARCEELGGLLAATLLMGSLEHHHHHH”, for which the protein production entry was “failed”. “MKTLLSRSTAVPAKLLAATAITATLSAPAFSADANVESLVKAAQKEGSIYSVGMPDSWANWKDTWADLQSNYGLKHQDTDMSSAQEIAKFEAEKKNATADIGDVGFAFARVAVKKGVTQPYKPTTWNDIPDWAKDKDGHWALAYTGTISFISNNNLVKDAPKTWGDLLKGDYKVTVGDVGVAAQANNAVLAAAFANGGDESNLKPAIKFFAELAKQGRLSFTDPNIANLEKGEVEVAIMWDFNALNYRDKIDRERFTVTIPQDGSVISGYTTIINKYAKNPNAAKLAREYIFSDQGQINLAEGYARPIRTSITLPKSVQDKLIANDQYSNVHPVTDFSAWEKSARKLPRQWQESVLIHQQ”: the protein production entry is listed as “failed”. For “MKTLVDHLSQYANYHRDPRNIATHFVGIPMIVLAVTILLSRPGWEIAGMWLSPALLAAAASVWFYLRLDLRFGLVMGLLLGLCLWVGEALAVQSTTLWLGAGLGAFVVGWIIQFIGHYYEGRKPAFVDDVSGLIIGPLFVVAEAAFMLGLCPTLKRAVEANAGPIAMRQKKASV” the value was “failed”; for “MKTLVHLSDLHFGKTESHLVDAIAAEVRAVDSDLLVVSGDLTQRARKDEFLQARAFLDSLPGPRIVVPGNHDVPLWNVFARAMTPLSRYRRYIEADTDPFYADSEVAVVGINTARSLTIKNGRINVRQLKAATEKFAYMSDDITRIVVTHHPFEGLDLESDDGIVARADLAMDAFSRSGVDIILSGHQHLHRAGSSARRYLIDGYAALLVQAGTAVSSRVRQAANSFNIIRIEHPRISIECRAWQSLQSGFETSASYSFRQGSGGWEPALEHHHHHH”, “failed”.

As for “MKTLVIVAHPNLETSVVHKRWVEELKKYPEKYTVHELSDVYPDGNIDAEKEQKLVESHGNLVLQFPIYWFNCPPLLKKWLDDVLAYGWAYGSNGGDRLNNRKVALGVSAGIKEEDYRENGRYRYTLEQILVPFETTFRYCRADYRSFFAFYGKEKEPGGNEEEENEPGAGELEKSARDYLHFIDHM”, the protein production result is listed as “failed”. As for “MKTREEKMNKTILLLACLLGLVACSSQYIMSTKDGKMITSDSKPKLDKTTGMYLYYDEDGREVMIKQEDVTQIIERLEHHHHHH”, the protein production result is given as “not failed”.

On to “MKTRLMEAWKAHRSVMVQMPTGTGKTHLLASVVSEFVSSAGSGVWLIAHRRELVAQMEETLAKYGIRREDTPVRVMSVQWLSRHWNEAGDAPGLIVIDEAHHALAASYTEMWKRYPAAKKLGVTATPCRLNRRGFTELFEVLVTSWSIAEFIEKGVLSVFDYVSIRPGSEERRLIDGLEKRGADGDYQVKEMDAVLNRRPGIERLYRSVRQFASGKKGMVYAISIEHARRIAEYYSRRGVNAVAVDSKTPAMERKRMVEEFRHGKIEVLVNVDVFSEGFDCPDVEFVQLARPTLSLAKYLQQVGRGLRRSEGKEACMLIDNVGLYRIFGLPTQRWNWDAMFRGRMAGKGSLPGRMNCDASVTAFPVVERPAEAGGDLVVVMEHGRLLSSIREQALPDEKEQSPSCRLRAFVDKETGLWGLEKGDEMLPDASFKEVLSIKGRFAVGRLRNGCVRVLDDTGALVAEPGHCREVRFLKDDLLQVRHAGNSVSYVDLRNGRCYSVRPRVLRYGSIELLQANRTYYSRTRQVYANTCGLPSSSIVWMGFYVKMYDGRVPSRCRRMEDGGFCCEPQVCLLEGDEERAYYLSGRLPDQSIVVMDEEGRYYHVEKGHGKRYVACLEHHHHHH”, for which the protein production entry is “failed”.
